For experiment [1], the target named is truncated prolactin receptor of Nb2 cells (rat (endogenous in Nb2-11)).
Experiment [2] shares this target. The source holds these as a separate data set.

The substance “Fc-(FL3)-mono-hGH (from UniProt P01241 27-217) (Fc fusion)” displayed an EC50 of Nb2-11 cell proliferation (Alamar Blue, 3 days), Fig 3C in experiment [1] of 0.81 nM.
As to “Mono-hGH-(FL3)-Fc (from UniProt P01241 27-217) (Fc fusion)”, in experiment [2], the EC50 of Nb2-11 cell proliferation (Alamar Blue, 3 days), Fig 3A worked out at 1.64 nM.

The record behind these values is article PMC12080763.
